Experimental data taken from article PMC2768832 (The Journal of Cell Biology, 2009).

Biological target: p97/VCP-His, recombinant full-length mouse p97/VCP (mouse, UniProt Q01853 1-806)
Experiment: pull-down

Chain of p97/VCP-His, recombinant full-length mouse p97/VCP (Q01853 whole entry): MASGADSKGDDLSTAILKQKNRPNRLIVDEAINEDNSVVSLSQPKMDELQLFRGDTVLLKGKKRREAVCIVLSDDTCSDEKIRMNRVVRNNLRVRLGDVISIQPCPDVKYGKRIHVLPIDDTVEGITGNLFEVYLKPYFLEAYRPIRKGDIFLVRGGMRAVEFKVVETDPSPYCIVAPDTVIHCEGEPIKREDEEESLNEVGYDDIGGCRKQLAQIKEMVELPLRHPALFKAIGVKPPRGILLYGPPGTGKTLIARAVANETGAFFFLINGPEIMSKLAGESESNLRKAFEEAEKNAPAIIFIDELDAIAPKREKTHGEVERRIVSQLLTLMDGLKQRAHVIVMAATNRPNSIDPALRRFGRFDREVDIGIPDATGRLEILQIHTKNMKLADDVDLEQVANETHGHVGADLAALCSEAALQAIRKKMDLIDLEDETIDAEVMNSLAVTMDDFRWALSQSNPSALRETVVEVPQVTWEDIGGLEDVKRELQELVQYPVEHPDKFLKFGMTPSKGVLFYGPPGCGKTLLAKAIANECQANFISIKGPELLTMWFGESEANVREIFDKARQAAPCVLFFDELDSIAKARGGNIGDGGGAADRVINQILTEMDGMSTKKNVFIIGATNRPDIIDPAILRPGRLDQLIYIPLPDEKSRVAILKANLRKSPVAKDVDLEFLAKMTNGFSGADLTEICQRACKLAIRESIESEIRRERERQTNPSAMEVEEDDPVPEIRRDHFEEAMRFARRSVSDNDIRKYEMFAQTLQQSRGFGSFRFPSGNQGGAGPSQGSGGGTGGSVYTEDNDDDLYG

B1: erasin-His, recombinant full-length human erasin (natural protein)
chain: MLWFQGAIPAAIATAKRSGAVFVVFVAGDDEQSTQMAASWEDDKVTEASSNSFVAIKIDTKSEACLQFSQIYPVVCVPSSFFIGDSGIPLEVIAGSVSADELVTRIHKVRQMHLLKSETSVANGSQSESSVSTPSASFEPNNTCENSQSRNAELCEIPPTSDTKSDTATGGESAGHATSSQEPSGCSDQRPAEDLNIRVERLTKKLEERREEKRKEEEQREIKKEIERRKTGKEMLDYKRKQEEELTKRMLEERNREKAEDRAARERIKQQIALDRAERAARFAKTKEEVEAAKAAALLAKQAEMEVKRESYARERSTVARIQFRLPDGSSFTNQFPSDAPLEEARQFAAQTVGNTYGNFSLATMFPRREFTKEDYKKKLLDLELAPSASVVLLPAGRPTASIVHSSSGDIWTLLGTVLYPFLAIWRLISNFLFSNPPPTQTSVRVTSSEPPNPASSSKSEKREPVRKRVLEKRGDDFKKEGKIYRLRTQDDGEDENNTWNGNSTQQM
  binding result: binds
